Experimental data published in publication PMC11921551.

Legend:
[1] = biological target: Recombinant human LDL receptor (LDLR) (human) (UniProt P01130); test: AFM force spectroscopy; receptor on the AFM probe tip through PEG (micro-droplet method), lipoprotein immobilised on mica; PBS pH 7.4, 37 °C, loading force 0.5 nN for 2 s, loading speed 200 nm/s; n = 200 interactions
[2] = biological target: Recombinant human LDL receptor (LDLR) (human) (UniProt P01130); test: AFM force spectroscopy; LDLR on the AFM probe through PEG (traditional immersion method), LDL immobilised on mica; PBS pH 7.4, 37 °C; n = 200 interactions
[3] = biological target: Recombinant human CD36 (human) (UniProt P16671); test: AFM force spectroscopy; receptor on the AFM probe tip through PEG (micro-droplet method), lipoprotein immobilised on mica; PBS pH 7.4, 37 °C, loading force 0.5 nN for 2 s, loading speed 200 nm/s; n = 200 interactions

Recombinant human LDL receptor (LDLR) (human), sequence (P01130 22-788): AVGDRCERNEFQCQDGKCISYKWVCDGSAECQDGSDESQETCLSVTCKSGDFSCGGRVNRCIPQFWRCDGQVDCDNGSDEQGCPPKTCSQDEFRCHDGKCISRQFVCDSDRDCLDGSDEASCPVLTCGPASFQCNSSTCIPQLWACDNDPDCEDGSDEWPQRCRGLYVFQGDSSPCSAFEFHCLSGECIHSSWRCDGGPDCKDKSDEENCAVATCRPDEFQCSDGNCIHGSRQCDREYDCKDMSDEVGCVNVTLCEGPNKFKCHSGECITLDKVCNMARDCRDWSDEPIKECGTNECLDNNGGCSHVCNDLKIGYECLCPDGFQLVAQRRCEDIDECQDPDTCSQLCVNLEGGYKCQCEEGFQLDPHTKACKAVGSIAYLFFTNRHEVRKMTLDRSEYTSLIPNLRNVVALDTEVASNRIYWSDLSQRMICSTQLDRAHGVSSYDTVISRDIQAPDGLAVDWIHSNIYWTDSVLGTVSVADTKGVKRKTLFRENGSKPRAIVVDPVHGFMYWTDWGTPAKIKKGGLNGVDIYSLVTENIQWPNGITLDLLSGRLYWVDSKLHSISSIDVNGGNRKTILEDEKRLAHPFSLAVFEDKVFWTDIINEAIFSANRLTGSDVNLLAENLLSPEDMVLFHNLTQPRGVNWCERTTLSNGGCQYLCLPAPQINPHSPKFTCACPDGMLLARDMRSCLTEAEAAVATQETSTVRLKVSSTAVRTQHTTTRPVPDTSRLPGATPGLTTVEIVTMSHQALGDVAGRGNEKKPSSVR

In the case of “Human low-density lipoprotein (LDL), P04114 28-4563”, the average specific interaction force [1] is reported as 231 pN and the average specific interaction force [2] is reported as 322 pN.

In the case of “Human oxidized low-density lipoprotein (oxLDL) (from UniProt P04114 28-4563) (complex)”, the average interaction force [3] is reported as 229 pN.
